Here are results for 18 sequences from the supplement of paper PMC12764529.

Series [1] in a line: folding stability dG unfold from trypsin proteolysis; higher = more stable. In a few lines:
(§1)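 Unfolding free energy was derived, per protease or combined, against a sequence-predicted unfolded-state K50 and a shared folded-state K50, starting from K50 inferred by Bayesian fitting of sequencing counts. Digestion with trypsin and chymotrypsin was carried out on designed mini-proteins under 80 residues without cysteine in a PA-tagged cDNA display construct. Only designs with AlphaFold2 dimer inter-PAE above 15 were kept.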

A short description of series [2]: folding stability dG unfold from chymotrypsin proteolysis; higher = more stable. A digest of the protocol: as §1
A short description of series [3]: folding stability dG unfold (combined trypsin and chymotrypsin); higher = more stable. A digest of the protocol:
as §1

± gives the half width of the 95% confidence interval.

On to “SAGGSAMRIKDVNPDNGYFRIEPPDNGKPIYELNVEAMKKAQENGDIPPWVRELLNHEPGYRIEPVSAGGSA [r15_359_TrROS]”, for which the “folding stability dG unfold” value in series [1] was -0.979 ± 0.49 kcal/mol; in series [2], -0.291 ± 0.21 kcal/mol; in series [3], -0.327 ± 0.15 kcal/mol.

For “SAGGSAMSEEALAEAERLVAERRAALEAAGVPVTVERVEVTVTVDTEVPTTNITVDLDVRLPDAPESAGGSA [r2_94_JUSTAS]”, the “folding stability dG unfold” value in series [1] was -0.0861 ± 0.034 kcal/mol; in series [2], 1.38 ± 0.024 kcal/mol; in series [3], 0.999 ± 0.027 kcal/mol.

With “SAGGSAMTLEFKILFPNKTKEEAIKAIEEIPEEIKKNIKKIEILKIDPVGDEVIATLKIEVDPEFLSAGGSA [r15_244_TrMRF]”, the “folding stability dG unfold” value in series [1] came out at 0.723 ± 0.18 kcal/mol; in series [2], 1.86 ± 0.24 kcal/mol; in series [3], 1.37 ± 0.29 kcal/mol.

“SAGGSAMTPEEVREKAEEIAETLAAEAREAGYEVEVKAKVEGLPEKYARVTVELNGARVEVLIPLDSAGGSA [r15_432_TrMRF]”: the “folding stability dG unfold” value in series [1] was 0.453 ± 0.059 kcal/mol; in series [2] it was -0.311 ± 0.18 kcal/mol; in series [3], 0.125 ± 0.09 kcal/mol.

“SAGGSAMTPVTIELPFEVEADDPEEAIKKAKELAEKLGLKPVEIKEIEVEPGNPKKVTVLMKATILSAGGSA [r15_183_JUSTAS]”: the “folding stability dG unfold” value came out at 1.74 ± 0.066 kcal/mol in series [1], 1.36 ± 0.049 kcal/mol in series [2] and 1.6 ± 0.071 kcal/mol in series [3].

Regarding “SAGGSAMTVTTTTSVDPKTGIITTTVSVNGTPVFTGTSIVAPGGEVAETFGTYTYDPETGTVTVTGSAGGSA [r15_770_JUSTAS]”, the “folding stability dG unfold” value in series [1] is 1.7 ± 0.067 kcal/mol; in series [2], 1.17 ± 0.049 kcal/mol; in series [3], 1.43 ± 0.086 kcal/mol.

As to “SAGGSAMVVRIEVDGKTIEIPAGASLEELKALLAENPGARFRIEVVEPPPPELSEEERKALEEARKSAGGSA [r15_36_TrROS_Hall]”, the “folding stability dG unfold” value in series [1] was found to be 1.35 ± 0.019 kcal/mol; in series [2] it was 1.32 ± 0.077 kcal/mol; in series [3], 1.37 ± 0.1 kcal/mol.

As for “SAGGSAMVVRITTKDGKKIEITVKSVEELLEALKELGVEEVKLEKLPDGKELKLTVTLKDGKIEILSAGGSA [r15_632_TrROS_Hall]”, the “folding stability dG unfold” value in series [1] is 3.14 ± 0.087 kcal/mol; in series [2], 2.8 ± 0.077 kcal/mol; in series [3], 2.92 ± 0.054 kcal/mol.

In the case of “SAGGSAMYEVRIKIKKDGKEVEIELSLEELEELLESPELREELEIVEIEVRPLPPEELSEEELKALSAGGSA [r15_460_TrROS_Hall]”, the “folding stability dG unfold” value in series [1] turned out to be 1.18 ± 0.028 kcal/mol; in series [2], 0.836 ± 0.045 kcal/mol; in series [3] it was 1.06 ± 0.058 kcal/mol.

Consider “SAGGSANDKDGQKKKQIKPIKIELPIPPGMEIEEINPGNGMIMIRWPENGWTWMFSLDDGKIFVMDSAGGSA [r15_452_TrROS]”, for which the “folding stability dG unfold” value in series [1] is 1.54 ± 0.058 kcal/mol; in series [2], 2.13 ± 0.19 kcal/mol; in series [3] it was 1.86 ± 0.22 kcal/mol.

With “SAGGSANEILEKLGYPEENIVERKKVFKLPNGTELYEYVIPKTENGVTATILVEKTPKGVKIKVLPSAGGSA [r15_813_JUSTAS]”, the “folding stability dG unfold” value in series [1] was -0.642 ± 0.44 kcal/mol; in series [2], 0.414 ± 0.25 kcal/mol; in series [3], 0.318 ± 0.22 kcal/mol.

For “SAGGSANLAETPPVTTTETIEIKVPDPGKPLPITEEDVKKKYEGKNTKVEISVEGDKVIITITTKESAGGSA [r15_377_JUSTAS]”, the “folding stability dG unfold” value in series [1] was found to be 0.407 ± 0.054 kcal/mol; in series [2], 0.871 ± 0.094 kcal/mol; in series [3], 0.68 ± 0.24 kcal/mol.

As for “SAGGSANPKPKIEIDKIYRMPDGQVHIPIEMERYDDDGQKETYPMDVTFNVPEGKPLTPNAIKDLISAGGSA [r15_836_TrROS]”, the “folding stability dG unfold” value in series [1] was -0.645 ± 0.064 kcal/mol; in series [2], -0.924 ± 0.24 kcal/mol; in series [3], -0.693 ± 0.15 kcal/mol.

As to “SAGGSANTTYIELPTNGMSDEEVKELAEELAKKLGVKLEIKPLPGEGYWVVTFTLPDSTSTIVIPGSAGGSA [r15_168_JUSTAS]”, the “folding stability dG unfold” value in series [1] is 2.55 ± 0.11 kcal/mol; in series [2], 2.37 ± 0.038 kcal/mol; in series [3], 2.41 ± 0.11 kcal/mol.

As for “SAGGSANWRPIEIELMIGIKSKEQAKEWAEEIADNFPGIKDVEVEEFPDPDGHVMVAVDVKFYVPESAGGSA [r15_726_TrROS]”, the entries for the “folding stability dG unfold” value in series [1], in series [2] and in series [3] were 0.755 ± 0.057 kcal/mol, 0.999 ± 0.031 kcal/mol and 0.969 ± 0.075 kcal/mol, respectively.

Consider “SAGGSANWVKVEVKIPGGLKIEVWVPPGMSKEENQEKAQEMADEMAQMLRQMRENRKEGKPPTIDFSAGGSA [r15_704_TrROS]”, for which the “folding stability dG unfold” value in series [1] was determined as 0.819 ± 0.08 kcal/mol; in series [2], 2.02 ± 0.065 kcal/mol; in series [3], 1.66 ± 0.1 kcal/mol.

As to “SAGGSAPAEKVAQTLLDLGFTEVRVEEDPETDLVTVEVIDPDGTRLEIRVDPKDPRIVEIRPRSLKSAGGSA [r15_648_TrMRF]”, the “folding stability dG unfold” value in series [1] is -0.351 ± 0.14 kcal/mol; in series [2] it was -0.0972 ± 0.15 kcal/mol; in series [3] it was -0.154 ± 0.16 kcal/mol.

For “SAGGSAPETLTIKVKNADGSTQTITLPAGATATSIEFNEDTGELTIHLEETGETITLPADEITEITSAGGSA [r15_133_TrROS_Hall]”, the figures for the “folding stability dG unfold” value in series [1], in series [2] and in series [3] were 1.39 ± 0.12 kcal/mol, 1.33 ± 0.026 kcal/mol and 1.4 ± 0.11 kcal/mol, respectively.
